Test results as given in patent publication US20200248174.

Assays:
[1] = biological target: dCas9 (SpCas9 D10A, H840A) with a plurality of binding domains (SH3 domains)
[2] = biological target: dCas9 (SpCas9 D10A, H840A) ligated to SH3 domain via 2xGS linker

B1: human AID deaminase added with SH3 ligand sequence (protein)
chain: MDSLLMNRRKFLYQFKNVRWAKGRRETYLCYVVKRRDSATSFSLDFGYLRNKNGCHVELLFLRYISDWDLDPGRCYRVTWFTSWSPCYDCARHVADFLRGNPYLSLRIFTARLYFCEDRKAEPEGLRRLHRAGVQIAIMTFKDYFYCWNTFVENHERTFKAWEGLHENSVRLSRQLRRILLPLYEVDDLRDAFRTLGLLDPPPALPPKRRR
For B1, the “mutation introduction efficiency at the CAN1 gene in budding yeast” value [1] was “The mutation introduction efficiency was remarkably improved by introducing a plurality of binding domains into dCas9” and the “introduction of mutation into the targeted site of the CAN1 gene in budding yeast” value [2] was “even when dCas9 and deaminase were linked via the binding domain, mutation was efficiently introduced into the targeted site of the CAN1 gene”.
